The record followed here is PMC3775092.

The test addresses KillerRed. In words: SEC.

Substance KillerRed yielded a stoichiometry N of 2.
